{"source": "the DeepSol protein solubility set"}
{"assay": "soluble on expression in E. coli; label from the status in PepcDB or PDB records"}
{"sequence": "MSLAVEIACLDLEGVLVPEIWIAFAEKTGIESLRATTRDIPDYDVLMKQRLRILDEHGLKLADIQAVISTLKPLEGAVEFVDWLRERFQVVILSDTFYEFSQPLMRQLGFPTLLCHRLITDETDRVVSYQLRQKDPKRQSVLAFKSLYYRIIAAGDSYNDTTMLGEADAGILFHAPDNVIREFPQFPAVHTFDELKKEFIKASNRELVLEGHHHHHH", "soluble on expression in E. coli": "soluble"}
{"sequence": "MSLAYGIRLLVWGERACFTRPEMKVERVSYDVITPSAARGILEAIHWKPAICWVVDRIHVLKPIRFESIRRNEVGGKLSAASVGKAMKAGRTDGLIALADEDRQQRAATVLRDVSYVIEAHFELTARADASDSEGKHLDIFNRRARKGQYFHAPCLGVREFPASFELIEPDDVLPAVPADLRGERELGWMLHDIDFANDMTPHFFRAVMRDGVIEVPALRSEGVKAEGHHHHHH", "soluble on expression in E. coli": "soluble"}
{"sequence": "MSLCAAHAARPLALVMRLGYETAMSQIESLFVTRLYRARLSEHGPAIDPEEMEASCYSIAEDDEAGQEWCEENGYPGYTSYASLTDLPWRFPIFADLVTSLDAHVAAFAADLEFDLDGRKLVLEDLWINILPQGGMHSSHLHPHSVISGTTYVAMPEGASALKLEDPRSGRMMAAPTRTKTARRELQPFIYMKPDVGDVLLWESWLRHEVPMNMSEEERISVSFNYRWDEGHHHHHH", "soluble on expression in E. coli": "soluble"}
{"sequence": "MSLCGLLGILTANGNAEAFVPALERALPCMRHRGPDDAGTWHDADAAFGFNRLSIIDIAHSHQPLRWGPADEPDRYAMTFNGEIYNYVELRKELSDLGYAFNTSGDGEPIVVGFHHWGESVVEHLRGMFGIAIWDTKEKSLFLARDQFGIKPLFYATTEHGTVFSSEKKTILEMAEEMNLDLGLDKRTIEHYVDLQYVPEPDTLHAQISRLESGCTATVRPGGKLEQKRYFKPQFPVQKVVKGKEQDLFDRIAQVLEDSVEKHMRADVTVGSFLSGGIDSTAIAALAKRHNPDLLTFTTGFEREGYSEVDVAAESAAAIGAEHIVKIVSPEEYANAIPKIMWYLDDPVADPSLVPLYFVAAEARKHVKVVLSGEGADELFGGYTIYKEPLSLAPFEKIPSPLRKGLGKLSKVLPDGMKGKSLLERGSMTMEERYYGNARSFNFEQMQRVIPWAKREWDHREVTAPIYAQSRNFDPVARMQHLDLFTWMRGDILVKADKINMANSLELRVPFLDKEVFKVAETIPYDLKIANGTTKYALRRALEQIVPPHVLHRKKLGFPVPMRHWLAGDELFGWAQDTIKESGTEDIFNKQAVLDMLNEHRDGVSDHSRRLWTVLSFMVWHGIFVENRIDPQIEDRSYPVEEGHHHHHH", "soluble on expression in E. coli": "soluble"}
{"sequence": "MSLCRRRLATWLLDGSQPPTLLLPEQEGINGIRFPIWLDENGKRVAADCPQARQEMINVWPLPLEPWLPASERRAVRLPPASTSCPPYGHDAQLPLQLTGVRDGAIIKRLPGAAEATLPLQSSGGAGERWWFLNGEPLTERGRNVTLHLTDKGDYQLLVMDDVGQIATVKFVMQEGHHHHHH", "soluble on expression in E. coli": "soluble"}
{"sequence": "MSLDAENRAFYKIFTLKNNNLCKNSTLLEKIFKNNVEEFDFSLVKQNLEHEKNCVITSTMNQTIFFENMNSKEMGNKAYSFFNQTVLNNKGNTSLEEQISDIFDRCVYMNAEKSSSYIKLLEQDYNQVDMFVSLIFIGPYRHNLILITPVTLHLTLIPKNVKNNSFKNLFSGDMHFNMVTMTHLTEGHHHHHH", "soluble on expression in E. coli": "soluble"}
{"sequence": "MSLDARKNNVTIKVGMIGDSSIGKTSLMVTYVQGSFDEESTQTLGVNFMEKTISIRNTEITFSIWDLGGQREFVNMLPMVCNDAVAILFMFDLSRKSTLNSIKEWYRQARGFNKTAVPILIGTKYDHFMTFPREDQEEITKQARRYAKAMKASLVFCSTSHSINVQKIFKIVLAKVFDLKCTIPEIKNVGDPILEYIDREGHHHHHH", "soluble on expression in E. coli": "soluble"}
{"sequence": "MSLDAVRAVLIDIDGVLTVSWKPLPGAIEALHRIRDASLGVVLLTNTTSRTRASIAATLGASGFPVSAEDILTAPTATAAHLTDHCPGARCSLLNSGDIREDLVGVTLLDDTDTVPDVVIVGGAGPEFDYAALNRVFGHLQRGARLVAMHRNLYWRTDRGLDLDSGAFLLGLEHAAGTRAEITGKPAPAFFEAALTRLGAGPGQAVMVGDDIESDVLAAQRTGITGVLVKTGKYLPETHHAASARPDHVLDSVADLPALLDSVVREGHHHHHH", "soluble on expression in E. coli": "soluble"}
{"sequence": "MSLDFDADTPVVGMVHLSPLPGAPGYDDGNRPAIRDAALRDASRLEAGGVDALLVENFGDAPFYADDVPKHVVASMAALVRDITREAEVPVGVNVLRNDAEAAVSIAAAADADFVRVNVHTGARLTDQGVVGGQAAETVRLRDRLDAAEVSMLADIDVKHSAALAERPLSEGVAELLERGHADGVIASGAGTGHATDHDHLQAVVDARDRLDADAPVFVGSGVTQETVGATLDLADGAIVGTALKQNGETTAPVDGDRVRALVDAAR", "soluble on expression in E. coli": "not soluble"}
{"sequence": "MSLDFWLYKQAQQNGHHIAITDGQESYTYQNLYCEASLLAKRLKAYQQSRVGLYIDNSIQSIILIHACWLANIEIAMINTRLTPNEMTNQMRSIDVQLIFCTLPLELRGFQIVSLDDIEFAGRDITTNGLLDNTMGIQYDTSNETVVPKESPSNILNTSFNLDDIASIMFTSGTTGPQKAVPQTFRNHYASAIGCKESLGFDRDTNWLSVLPIYHISGLSVLLRAVIEGFTVRIVDKFNAEQILTMIKNERITHISLVPQTLNWLMQQGLHEPYNLQKILLGGAKLSATMIETALQYNLPIYNSFGMTETCSQFLTATPEMLHARPDTVGMPSANVDVKIKNPNKEGHGELMIKGANVMNGYLYPTDLTGTFENGYFNTGDIAEIDHEGYVMIYDRRKDLIISGGENIYPYQIETVAKQFPGISDAVCVGHPDDTWGQVPKLYFVSESDISKAQLIAYLSKHLAKYKVPKHFEKVDTLPYTSTGKLQRNKLYREGHHHHHH", "soluble on expression in E. coli": "soluble"}
{"sequence": "MSLDHIIIRHAHAAVITAPLNTPFRIATGQHDQLENVFFQLKAHDGTCGYGEAAVASHITGETVEQTLANLQKAATQLAGRNGNDPVELIEEFRPLFVGNHAALAAFEMALFDLASRSRGIPFGALFSAAPGCAARPRFQSDITIVIGSLEEAETAARHYAGQGFTAFKIKVGKDHELDLQRVLAVKRIAPDSCLVLDANMGFDATGMRRFLQQLEQHGIRPDLLEQPVPKGDWDGLAAITREFAGSGMLICADESVGSLAAAELAVALKAVNAINIKFMKSGITESVRIAELACRNNIKLMLGAMMESSLAITAAAHFAATLGCFEVIDLDTTFFINGPLSRSPYLDQSGRFDLGAPGPGIGVALKLLEGHHHHHH", "soluble on expression in E. coli": "soluble"}
{"sequence": "MSLDIAQIALHQLIKRDEQTLDMVLRDSLLPTNAAVEDMMAELHRVYSAKSKAYGLFNEQSELADALRACRKGDEDFLSFSRAATGRLRDELAKYPFAEGGIVLFCQYRYLAVEYLLISVLNSCNSMRVNEQLDISTTHYLDINHADIIARIDLTEWETNPESTRYLTFLKGRVGRKVSDFFMDFLAASEGLDTKAQNRGLLKAVDEYCDEAQLDKNERQNYRQQVHSYCTEQLQSGEEIELASLSQELPPLGEKTFQQFSADQGYELEESFPADRGTLRQLTKFAGSGGGISLNFDALLLGERIFWDPATDTLTIKGTPPNLRDQLQRRTSGGKQLEHHHHHH", "soluble on expression in E. coli": "not soluble"}
{"sequence": "MSLDKIRYGIMSTAQIVPRFVAGLRESAQAEVRGIASRRLENAQKMAKELAIPVAYGSYEELCKDETIDIIYIPTYNQGHYSAAKLALSQGKPVLLEKPFTLNAAEAEELFAIAQEQGVFLMEAQKSVFLPITQKVKATIQEGGLGEILWVQSVTAYPNVDHIPWFYSREAGGGALHGSGSYPLQYLQYVLGKEIQEVTGTATYQQGATDSQCNLALKFAEGTLGNIFINVGLKIPSEMTICGTKGQIVIPNFWKTDCAYYTDAQGNTVKWSEQFTSEFTYEINHVNQCLQDKKLTSPVMTKELTIATVKIVESFYQEWFDNEGHHHHHH", "soluble on expression in E. coli": "soluble"}
{"sequence": "MSLDKVTLLLNWYVYGEHAPFFYGKAKGLYAAEGIDLDIQEGRGSAVTIQAVAAGTVQFGYADVPTMIRAAAKGAPVVAVGVALQKSPMSVMGFSDKNIRKPEDIKGKIVATTPGDSMSQIWPLFLKQAGLRASDFQVVSGDAQTKLNAVANGRADLLLGYVMDQSMKLKDATGKDVRPIMFADYGIHMVSSGIITNKDLLKSNPDLVRRFMKATTAAFIGAEKDPGAAVDALLADLPKAGKRETLLEGFALTTPLYHTDETKGRPPFQVTDADMTSTVDLLIEYGGLEASAKDNTKSFYTRDYLPAAGNEGHHHHHH", "soluble on expression in E. coli": "soluble"}
